Measured values: doi:10.1101/2021.12.06.471393

Target: CRISPR-Lon protease (Sulfurihydrogenibium sp. YO3AOP1)
Assay: SEC-MALS

Substance | stoichiometry N (CRISPR-T variant per CRISPR-Lon) | stoichiometry N (CRISPR-T per CRISPR-Lon)
CRISPR-T A171E (natural protein) | 1 | –
CRISPR-T protein (natural protein) | – | 1
CRISPR-T A194E (natural protein) | 1 | –
CRISPR-T A181E (natural protein) | 1 | –
